Results from PMC6056500, “Novel interactomics approach identifies ABCA1 as direct target of evodiamine, which increases macrophage cholesterol efflux” (Scientific Reports, 2018).
Values belong to the molecule of their own block, whether it stands above or below them.

Tests used:
[1] = target: T1, ATP-binding cassette transporter A1 (ABCA1) (Homo sapiens, UniProt O95477); experiment: SPR (Biacore […], immobilized ABCA1 C-terminal peptide on CM5 chip); also identified by NPOT in THP-1 extract
T1 construct: recombinant ABCA1 peptide (Abcam #ab125995), C-terminal domain 2085–2245aa
T1 sequence (O95477 2085-2245): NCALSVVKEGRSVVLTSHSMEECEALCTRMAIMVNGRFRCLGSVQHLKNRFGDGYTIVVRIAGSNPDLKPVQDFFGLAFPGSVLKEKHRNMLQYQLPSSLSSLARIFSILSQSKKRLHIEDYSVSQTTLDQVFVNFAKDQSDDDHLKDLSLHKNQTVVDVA

[2] = target: T2, recombinant human retinal dehydrogenase-1 (ALDH1A1) (human, UniProt P00352 1-501); experiment: SPR; Biacore 3000; ABCA1 peptide immobilised on a CM5 chip by amine coupling; proteins dialysed against HBS-E (10 mM Hepes, 150 mM NaCl, 3 mM EDTA); ALDH1A1 injected at 6e-8 to 1e-6 M; 1:1 fit (Langmuir or drifting baseline); details: both partners purified
T2 construct: retinal dehydrogenase 1 (aldehyde dehydrogenase 1 family, member A1), human, recombinant; also called ALDHA1; aldehyde dehydrogenase 1 family, member A1
T2 sequence (looked up): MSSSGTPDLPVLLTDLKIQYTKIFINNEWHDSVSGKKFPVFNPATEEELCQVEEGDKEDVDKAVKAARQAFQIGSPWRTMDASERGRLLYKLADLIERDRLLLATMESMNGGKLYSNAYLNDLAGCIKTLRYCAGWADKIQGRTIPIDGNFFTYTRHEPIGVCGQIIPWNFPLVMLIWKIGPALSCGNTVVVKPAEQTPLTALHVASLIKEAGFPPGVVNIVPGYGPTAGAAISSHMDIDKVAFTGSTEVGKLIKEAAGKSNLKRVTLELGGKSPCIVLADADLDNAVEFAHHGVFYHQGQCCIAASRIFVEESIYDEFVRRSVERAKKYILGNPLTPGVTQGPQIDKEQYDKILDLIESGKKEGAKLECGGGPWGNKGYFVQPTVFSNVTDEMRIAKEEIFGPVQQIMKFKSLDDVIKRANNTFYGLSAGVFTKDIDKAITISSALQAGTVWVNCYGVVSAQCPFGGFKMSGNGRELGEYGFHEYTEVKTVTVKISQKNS

Molecule: CN1c2ccccc2C(=O)N2CCc3c([nH]c4ccccc34)C21 (stereo in doubt) [evodiamine]
Kd [1]: 810 nM

Ka [2]: 1.25e+06 M⁻¹
Kd [2]: 803 nM
B1: recombinant ABCA1 peptide (Abcam #ab125995, covering C-terminal domain 2085-2245aa) (domain or fragment, UniProt O95477 2085-2245, looked up)
chain: T1 sequence (O95477 2085-2245)
notes: check the Abcam data sheet; source: bought: Abcam #ab125995, recombinant
